# Data taken from US10619138B2, “Herbicide-resistant hydroxyphenylpyruvate dioxygenases” (BASF SE, priority 2013, dated 2020).
# B1: Arabidopsis thaliana HPPD, wild type, SEQ ID NO: 42 (Arabidopsis thaliana) (protein)
# chain: MGHQNAAVSENQNHDDGAASSPGFKLVGFSKFVRKNPKSDKFKVKRFHHIEFWCGDATNVARRFSWGLGMRFSAKSDLSTGNMVHASYLLTSGDLRFLFTAPYSPSLSAGEIKPTTTASIPSFDHGSCRSFFSSHGLGVRAVAIEVEDAESAFSISVANGAIPSSPPIVLNEAVTIAEVKLYGDVVLRYVSYKAEDTEKSEFLPGFERVEDASSFPLDYGIRRLDHAVGNVPELGPALTYVAGFTGFHQFAEFTADDVGTAESGLNSAVLASNDEMVLLPINEPVHGTKRKSQIQTYLEHNEGAGLQHLALMSEDIFRTLREMRKRSSIGGFDFMPSPPPTYYQNLKKRVGDVLSDDQIKECEELGILVDRDDQGTLLQIFTKPLGDRPTIFIEIIQRVGCMMKDEEGKAYQSGGCGGFGKGNFSELFKSIEEYEKTLEAKQLVG
# Substrate: O=C(O)C(=O)Cc1ccc(O)cc1
# Assay: purified protein, by the assay type
# Conditions: other: pH 7.0, apparent, substrate inhibition model, 20.0 °C
protein,measurement,value
B1,Km,13 µM
same,kcat,12.9 s⁻¹
same,kcat/Km,1e+06 M⁻¹ s⁻¹
